In the supplement of paper PMC9233669 one finds self-aminoacylation data, which are given here for 54 sequences.

The test system of this series is biotinyl-Phe-oxazolone. The series is described as follows: self-aminoacylation, catalytic enhancement (BFO) (fold over background); higher = more active; k-Seq, kA / k0A0; sequences stand for … in GGGAAUGGAUCCACAUCUACGAAUUC…UUCACUGCAGACUUGACGAAGCUG
In a few lines:
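Mutagenized RNA pools with a 21-nt variable region (0.43 μM) reacted with each biotinyl-aminoacyl-oxazolone at 2–1250 μM. Reactions ran in 50 μL HEPES/NaCl/KCl/MgCl2/CaCl2 buffer with 5% acetonitrile, pH 6.9–7.0, for 90 minutes at room temperature. Streptavidin-captured RNA was quantified by triplicate qPCR and Illumina sequencing, and per-sequence fraction reacted was fit to a pseudo-first-order model with 1000 bootstraps. Catalytic enhancement is median kA divided by the uncatalyzed rate, the low-activity peak of a bimodal Gaussian fit.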

Variants at the floor of the assay were thinned out.

As for “AAGAUGGCUAAUAGUCGCAAG [Fam3.1 aminoacylation ribozyme variant]”, the self-aminoacylation was found to be 2.14.

For “AAGCUUACUAAUAGUCGCAAG [Fam3.1 aminoacylation ribozyme variant]”, the self-aminoacylation came out at 3.02.

With “AAGCUUGCUAAUAAUCGCAAG [Fam3.1 aminoacylation ribozyme variant]”, the self-aminoacylation was 2.2.

Regarding “AAGCUUGCUAAUAGUCCCAAG [Fam3.1 aminoacylation ribozyme variant]”, the self-aminoacylation is 3.57.

Take “AAGGUUGCUAAUAGUCCCAAG [Fam3.1 aminoacylation ribozyme variant]”: the self-aminoacylation came to 2.86.

As to “AAGGUUGCUACUAGUCGCAAG [Fam3.1 aminoacylation ribozyme variant]”, the self-aminoacylation stood at 4.

On to “AAGUAUGCUAAGAGUCGCAAG [Fam3.1 aminoacylation ribozyme variant]”, for which the self-aminoacylation came to 4.08.

Turning to “AAGUAUGCUAAUAGUCGCUAG [Fam3.1 aminoacylation ribozyme variant]”, the self-aminoacylation was determined as 2.24.

As to “AAGUCUCCUAAUAGUCGCAAG [Fam3.1 aminoacylation ribozyme variant]”, the self-aminoacylation came out at 3.11.

Regarding “AAGUCUGCUGAUAGUCGCAAG [Fam3.1 aminoacylation ribozyme variant]”, the self-aminoacylation turned out to be 3.91.

On to “AAGUUAGCGAAUAGUCGCAAG [Fam3.1 aminoacylation ribozyme variant]”, for which the self-aminoacylation was found to be 2.1.

For “AAGUUAGCUAAUUGUCGCAAG [Fam3.1 aminoacylation ribozyme variant]”, the self-aminoacylation came out at 2.54.

Take “AAGUUCGCUAGUAGUCGCAAG [Fam3.1 aminoacylation ribozyme variant]”: the self-aminoacylation stood at 4.51.

For “AAGUUUAAUAAUAGUCGCAAG [Fam3.1 aminoacylation ribozyme variant]”, the self-aminoacylation was found to be 2.22.

On to “AAGUUUACUAAUAGUCGCACG [Fam3.1 aminoacylation ribozyme variant]”, for which the self-aminoacylation stood at 2.22.

“AAGUUUACUAAUAGUCGUAAG [Fam3.1 aminoacylation ribozyme variant]”: the self-aminoacylation turned out to be 2.3.

In the case of “AAGUUUCCAAAUAGUCGCAAG [Fam3.1 aminoacylation ribozyme variant]”, the self-aminoacylation turned out to be 2.83.

With “AAGUUUCCUAAUAGUCUCAAG [Fam3.1 aminoacylation ribozyme variant]”, the self-aminoacylation amounted to 2.15.

For “AAGUUUGCGCAUAGUCGCAAG [Fam3.1 aminoacylation ribozyme variant]”, the self-aminoacylation was 2.97.

As to “AAGUUUGCUAAAAGUCGCAUG [Fam3.1 aminoacylation ribozyme variant]”, the self-aminoacylation amounted to 2.71.

On to “AAGUUUGCUAACAGUCGCAGG [Fam3.1 aminoacylation ribozyme variant]”, for which the self-aminoacylation amounted to 3.44.

For the sequence “AAGUUUGCUAAUACUCGCGAG [Fam3.1 aminoacylation ribozyme variant]”, the self-aminoacylation stood at 5.73.

Consider “AAGUUUGCUAAUGGCCGCAAG [Fam3.1 aminoacylation ribozyme variant]”, for which the self-aminoacylation was 4.21.

Consider “AAGUUUGCUCACAGUCGCAAG [Fam3.1 aminoacylation ribozyme variant]”, for which the self-aminoacylation stood at 2.76.

For “AAGUUUGCUCAUAGUCGCAGG [Fam3.1 aminoacylation ribozyme variant]”, the self-aminoacylation amounted to 2.92.

Regarding “AAGUUUGGUAAAAGUCGCAAG [Fam3.1 aminoacylation ribozyme variant]”, the self-aminoacylation was found to be 2.32.

Turning to “AAGUUUUCUAAUAGCCGCAAG [Fam3.1 aminoacylation ribozyme variant]”, the self-aminoacylation was 2.19.

“AAUUUUGCUAAUGGUCGCAAG [Fam3.1 aminoacylation ribozyme variant]”: the self-aminoacylation turned out to be 3.61.

Regarding “ACACACUUCAAGCAAUCGAUC [Fam1B.1 aminoacylation ribozyme variant]”, the self-aminoacylation stood at 2.02.

As to “ACGUUAGCUAAUAGUCGCAAG [Fam3.1 aminoacylation ribozyme variant]”, the self-aminoacylation was determined as 3.08.

As for “ACUCACCUAGGUCAUCGUGUG [Fam2.2 aminoacylation ribozyme variant]”, the self-aminoacylation turned out to be 4.06.

On to “AGGUUUGUUAAUAGUCGCAAG [Fam3.1 aminoacylation ribozyme variant]”, for which the self-aminoacylation worked out at 3.87.

On to “AGUCACCUAGGUCAUCGUGUG [Fam2.2 aminoacylation ribozyme variant]”, for which the self-aminoacylation is 7.83.

As for “AUGUUUGCUAAUAGUCGGAAG [Fam3.1 aminoacylation ribozyme variant]”, the self-aminoacylation was 5.76.

In the case of “AUUACCCUGGCCAUCGUGUGA [Fam2.1 aminoacylation ribozyme variant]”, the self-aminoacylation turned out to be 6.7.

Regarding “AUUACCCUGGUCAUCGAGAGG [Fam2.1 aminoacylation ribozyme variant]”, the self-aminoacylation came to 2.47.

Turning to “AUUACCCUGGUCAUCGUGUGU [Fam2.1 aminoacylation ribozyme variant]”, the self-aminoacylation worked out at 2.45.

Take “AUUACCCUGGUCGUCGUGUGA [Fam2.1 aminoacylation ribozyme variant]”: the self-aminoacylation was determined as 9.58.

For “AUUACCCUGGUGAUCGUGUGA [Fam2.1 aminoacylation ribozyme variant]”, the self-aminoacylation was 5.71.

Regarding “AUUCACCUAGGUCAUCCGGUC [Fam2.2 aminoacylation ribozyme variant]”, the self-aminoacylation came out at 4.67.

With “AUUCACCUAGGUCAUCCGGUU [Fam2.2 aminoacylation ribozyme variant]”, the self-aminoacylation is 9.74.

Regarding “AUUCACCUAGGUCGUCGUGUG [Fam2.2 aminoacylation ribozyme variant]”, the self-aminoacylation was 3.62.

“AUUCACCUAGGUCGUCUGGUG [Fam2.2 aminoacylation ribozyme variant]”: the self-aminoacylation was 5.84.

Consider “AUUCACCUAGGUGAGCGGGUG [Fam2.2 aminoacylation ribozyme variant]”, for which the self-aminoacylation is 7.25.

Regarding “AUUCACUUAGGUCGUCGGGUG [Fam2.2 aminoacylation ribozyme variant]”, the self-aminoacylation was found to be 4.92.

“AUUCUCCUAGGUCAUCGGGUC [Fam2.2 aminoacylation ribozyme variant]”: the self-aminoacylation was 4.09.

For the sequence “AUUUCCCUGGUCAUCGAGUUA [Fam2.1 aminoacylation ribozyme variant]”, the self-aminoacylation was 2.12.

For “CAACACUUCAAGCAAUCGGAC [Fam1B.1 aminoacylation ribozyme variant]”, the self-aminoacylation came to 2.37.

For “CAACUUCAAACAAUCGAUCUG [Fam1A.1 aminoacylation ribozyme variant]”, the self-aminoacylation turned out to be 3.33.

With “CAACUUUAAACAAUCGGUCUG [Fam1A.1 aminoacylation ribozyme variant]”, the self-aminoacylation came out at 2.09.

For “CAGUUUGCUAAUAGUCGCUAG [Fam3.1 aminoacylation ribozyme variant]”, the self-aminoacylation stood at 2.2.

With “CAGUUUGCUCAUAGUCGCAAG [Fam3.1 aminoacylation ribozyme variant]”, the self-aminoacylation was found to be 2.06.

Regarding “CCACACUUCAAACAAUCGAUC [Fam1B.1 aminoacylation ribozyme variant]”, the self-aminoacylation was found to be 2.59.

In the case of “CCACACUUCAGGCAAUCCGUC [Fam1B.1 aminoacylation ribozyme variant]”, the self-aminoacylation turned out to be 2.08.
